Biological target: Flap endonuclease 1 (FEN1) (human (endogenous in RA3087 cells), UniProt P39748-1 1-380)
Test: cell-based or functional assay

Sequence of Flap endonuclease 1 (FEN1) (P39748 whole entry): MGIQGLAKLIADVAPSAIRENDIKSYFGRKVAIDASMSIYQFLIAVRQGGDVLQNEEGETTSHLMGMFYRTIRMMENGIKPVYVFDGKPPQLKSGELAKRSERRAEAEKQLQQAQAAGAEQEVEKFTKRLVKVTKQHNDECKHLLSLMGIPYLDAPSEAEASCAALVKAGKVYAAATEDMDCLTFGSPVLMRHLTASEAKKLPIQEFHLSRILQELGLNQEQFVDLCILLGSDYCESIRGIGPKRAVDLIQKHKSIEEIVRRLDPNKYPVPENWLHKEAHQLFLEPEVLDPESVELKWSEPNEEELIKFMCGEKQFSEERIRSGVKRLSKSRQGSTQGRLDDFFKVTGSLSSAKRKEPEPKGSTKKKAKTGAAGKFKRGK

B1: FLAG-FANCA (human Fanconi anemia complementation group A protein) (natural protein, UniProt O15360-1 1-1455, looked up)
chain: MSDSWVPNSASGQDPGGRRRAWAELLAGRVKREKYNPERAQKLKESAVRLLRSHQDLNALLLEVEGPLCKKLSLSKVIDCDSSEAYANHSSSFIGSALQDQASRLGVPVGILSAGMVASSVGQICTAPAETSHPVLLTVEQRKKLSSLLEFAQYLLAHSMFSRLSFCQELWKIQSSLLLEAVWHLHVQGIVSLQELLESHPDMHAVGSWLFRNLCCLCEQMEASCQHADVARAMLSDFVQMFVLRGFQKNSDLRRTVEPEKMPQVTVDVLQRMLIFALDALAAGVQEESSTHKIVRCWFGVFSGHTLGSVISTDPLKRFFSHTLTQILTHSPVLKASDAVQMQREWSFARTHPLLTSLYRRLFVMLSAEELVGHLQEVLETQEVHWQRVLSFVSALVVCFPEAQQLLEDWVARLMAQAFESCQLDSMVTAFLVVRQAALEGPSAFLSYADWFKASFGSTRGYHGCSKKALVFLFTFLSELVPFESPRYLQVHILHPPLVPGKYRSLLTDYISLAKTRLADLKVSIENMGLYEDLSSAGDITEPHSQALQDVEKAIMVFEHTGNIPVTVMEASIFRRPYYVSHFLPALLTPRVLPKVPDSRVAFIESLKRADKIPPSLYSTYCQACSAAEEKPEDAALGVRAEPNSAEEPLGQLTAALGELRASMTDPSQRDVISAQVAVISERLRAVLGHNEDDSSVEISKIQLSINTPRLEPREHMAVDLLLTSFCQNLMAASSVAPPERQGPWAALFVRTMCGRVLPAVLTRLCQLLRHQGPSLSAPHVLGLAALAVHLGESRSALPEVDVGPPAPGAGLPVPALFDSLLTCRTRDSLFFCLKFCTAAISYSLCKFSSQSRDTLCSCLSPGLIKKFQFLMFRLFSEARQPLSEEDVASLSWRPLHLPSADWQRAALSLWTHRTFREVLKEEDVHLTYQDWLHLELEIQPEADALSDTERQDFHQWAIHEHFLPESSASGGCDGDLQAACTILVNALMDFHQSSRSYDHSENSDLVFGGRTGNEDIISRLQEMVADLELQQDLIVPLGHTPSQEHFLFEIFRRRLQALTSGWSVAASLQRQRELLMYKRILLRLPSSVLCGSSFQAEQPITARCEQFFHLVNSEMRNFCSHGGALTQDITAHFFRGLLNACLRSRDPSLMVDFILAKCQTKCPLILTSALVWWPSLEPVLLCRWRRHCQSPLPRELQKLQEGRQFASDFLSPEAASPAPNPDWLSAAALHFAIQQVREENIRKQLKKLDCEREELLVFLFFFSLMGLLSSHLTSNSTTDLPKAFHVCAAILECLEKRKISWLALFQLTESDLRLGRLLLRVAPDQHTRLLPFAFYSLLSYFHEDAAIREEAFLHVAVDMYLKLVQLFVAGDTSTVSPPAGRSLELKGQGNPVELITKARLFLLQLIPRCPKKSFSHVAELLADRGDCDPEVSAALQSRQQAAPDADLSQEPHLF
- stimulation of FEN1 5' flap endonuclease activity on the 15-nt DNA flap (2 nM substrate, 0.2 nM purified FEN1) by purified His6-FANCA at 2.5, 5, 10 nM; fold over FEN1 alone: 4.5 fold
- stimulation of FEN1 5' flap endonuclease activity on the 15-nt RNA flap (2 nM substrate, 0.1 nM purified FEN1) by purified His6-FANCA at 2.5, 5, 10 nM; fold over FEN1 alone: 8 fold
